Assay results published in the supplement of paper PMC7125110.
± gives the standard error. This sample holds only a part of the variants without activity.

B1: glmS ribozyme (parent)
chain: AUAAAAGCGCCAGAACUACAGAAAUGUAGUUGACGAGGAGGAGGUUUAUCGAAUUUUCGGCGGAUGCCUCCAAA

Legend:
Settings in all cases: with glucosamine-6-phosphate
[1] = variants of: B1; test: self-cleavage kobs at 160 uM GlcN6P; higher = faster cleavage; RNA array
Outline: (§1)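 Barcoded ribozyme variants were transcribed in situ on sequenced MiSeq chips by E. coli RNA polymerase. At 37 °C, a hybridised Cy3 probe tracked them while glucosamine-6-phosphate (40 μM to 10 mM) in HEPES/KCl/Mg(OAc)2 buffer flowed in and tiles were imaged over ~14 h. Per-tile medians of signals normalised to baseline and to non-cleaving reference variants were fit to one- or two-exponential decays, giving kobs. kcat and KM came from weighted Michaelis–Menten fits across concentrations.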

[2] = variants of: B1; test: self-cleavage kobs at 640 uM GlcN6P; higher = faster cleavage; RNA array
Outline: as §1

[3] = variants of: B1; test: self-cleavage kobs at 2500 uM GlcN6P; higher = faster cleavage; RNA array
Outline: as §1

[4] = variants of: B1; test: self-cleavage kobs at 10000 uM GlcN6P; higher = faster cleavage; RNA array
Outline: as §1

## A33C G35A
[1]
  self-cleavage kobs at 160 uM GlcN6P: < 1e-05 s⁻¹
[2]
  self-cleavage kobs at 640 uM GlcN6P: < 1e-05 s⁻¹
[3]
  self-cleavage kobs at 2500 uM GlcN6P: < 1e-05 s⁻¹
[4]
  self-cleavage kobs at 10000 uM GlcN6P: < 1e-05 s⁻¹

## C10A C16U G41A A42C
[1]
  self-cleavage kobs at 160 uM GlcN6P: < 1e-05 s⁻¹
[2]
  self-cleavage kobs at 640 uM GlcN6P: < 1e-05 s⁻¹
[3]
  self-cleavage kobs at 2500 uM GlcN6P: < 1e-05 s⁻¹
[4]
  self-cleavage kobs at 10000 uM GlcN6P: < 1e-05 s⁻¹

## G29C A48C G62U
[1]
  self-cleavage kobs at 160 uM GlcN6P: < 1e-05 s⁻¹
[2]
  self-cleavage kobs at 640 uM GlcN6P: < 1e-05 s⁻¹
[3]
  self-cleavage kobs at 2500 uM GlcN6P: < 1e-05 s⁻¹

## G35C G40C A52C
[1]
  self-cleavage kobs at 160 uM GlcN6P: < 1e-05 s⁻¹
[2]
  self-cleavage kobs at 640 uM GlcN6P: < 1e-05 s⁻¹
[3]
  self-cleavage kobs at 2500 uM GlcN6P: < 1e-05 s⁻¹

## G9C U46G
[1]
  self-cleavage kobs at 160 uM GlcN6P: < 1e-05 s⁻¹
[2]
  self-cleavage kobs at 640 uM GlcN6P: < 1e-05 s⁻¹
[4]
  self-cleavage kobs at 10000 uM GlcN6P: < 1e-05 s⁻¹

## G9A G38A G51A
[1]
  self-cleavage kobs at 160 uM GlcN6P: < 1e-05 s⁻¹
[2]
  self-cleavage kobs at 640 uM GlcN6P: < 1e-05 s⁻¹
[3]
  self-cleavage kobs at 2500 uM GlcN6P: < 1e-05 s⁻¹

## C11G A14C U31G A33U
[1]
  self-cleavage kobs at 160 uM GlcN6P: < 1e-05 s⁻¹
[2]
  self-cleavage kobs at 640 uM GlcN6P: < 1e-05 s⁻¹
[3]
  self-cleavage kobs at 2500 uM GlcN6P: < 1e-05 s⁻¹

## C11G A33C G35C G62A
[1]
  self-cleavage kobs at 160 uM GlcN6P: < 1e-05 s⁻¹
[2]
  self-cleavage kobs at 640 uM GlcN6P: < 1e-05 s⁻¹

## C11U G51U A53G
[1]
  self-cleavage kobs at 160 uM GlcN6P: < 1e-05 s⁻¹

## G7A A15U
[1]
  self-cleavage kobs at 160 uM GlcN6P: < 1e-05 s⁻¹

## G35U C67A
[1]
  self-cleavage kobs at 160 uM GlcN6P: < 1e-05 s⁻¹
[2]
  self-cleavage kobs at 640 uM GlcN6P: < 1e-05 s⁻¹
[3]
  self-cleavage kobs at 2500 uM GlcN6P: < 1e-05 s⁻¹

## C11A A42C
[1]
  self-cleavage kobs at 160 uM GlcN6P: < 1e-05 s⁻¹
[2]
  self-cleavage kobs at 640 uM GlcN6P: < 1e-05 s⁻¹
[3]
  self-cleavage kobs at 2500 uM GlcN6P: < 1e-05 s⁻¹

## C10G U45C U49A U54G C70G
[1]
  self-cleavage kobs at 160 uM GlcN6P: < 1e-05 s⁻¹
[2]
  self-cleavage kobs at 640 uM GlcN6P: < 1e-05 s⁻¹

## G7C G32C G41U U47G U56C
[1]
  self-cleavage kobs at 160 uM GlcN6P: < 1e-05 s⁻¹
[2]
  self-cleavage kobs at 640 uM GlcN6P: < 1e-05 s⁻¹
[3]
  self-cleavage kobs at 2500 uM GlcN6P: < 1e-05 s⁻¹

## G7U C50A
[1]
  self-cleavage kobs at 160 uM GlcN6P: < 1e-05 s⁻¹
[2]
  self-cleavage kobs at 640 uM GlcN6P: < 1e-05 s⁻¹
[4]
  self-cleavage kobs at 10000 uM GlcN6P: < 1e-05 s⁻¹

## A14C A36G U46G U65A
[1]
  self-cleavage kobs at 160 uM GlcN6P: < 1e-05 s⁻¹
[2]
  self-cleavage kobs at 640 uM GlcN6P: < 1e-05 s⁻¹

## A12U C34A
[1]
  self-cleavage kobs at 160 uM GlcN6P: < 1e-05 s⁻¹
[2]
  self-cleavage kobs at 640 uM GlcN6P: < 1e-05 s⁻¹

## C10U A12G G35C
[1]
  self-cleavage kobs at 160 uM GlcN6P: < 1e-05 s⁻¹

## G35A G41U A48G
[1]
  self-cleavage kobs at 160 uM GlcN6P: < 1e-05 s⁻¹
[3]
  self-cleavage kobs at 2500 uM GlcN6P: < 1e-05 s⁻¹

## G13C A14C G51A G66U
[1]
  self-cleavage kobs at 160 uM GlcN6P: < 1e-05 s⁻¹
[3]
  self-cleavage kobs at 2500 uM GlcN6P: < 1e-05 s⁻¹

## C11A A15G U69G
[1]
  self-cleavage kobs at 160 uM GlcN6P: 0.000139 ± 6.4e-05 s⁻¹
[2]
  self-cleavage kobs at 640 uM GlcN6P: 0.000293 ± 0.0001 s⁻¹
[3]
  self-cleavage kobs at 2500 uM GlcN6P: 0.000159 ± 4.9e-05 s⁻¹

## G59U C67U C68U U69C
[1]
  self-cleavage kobs at 160 uM GlcN6P: 4.87e-05 ± 2.4e-05 s⁻¹

## A14G U54C G60C A64G C70G
[1]
  self-cleavage kobs at 160 uM GlcN6P: < 1e-05 s⁻¹
[2]
  self-cleavage kobs at 640 uM GlcN6P: < 1e-05 s⁻¹

## C50G A53G C61U
[1]
  self-cleavage kobs at 160 uM GlcN6P: 0.000208 ± 7.8e-05 s⁻¹
[2]
  self-cleavage kobs at 640 uM GlcN6P: 0.000248 ± 8.1e-05 s⁻¹
[3]
  self-cleavage kobs at 2500 uM GlcN6P: 0.000398 ± 9.7e-05 s⁻¹
[4]
  self-cleavage kobs at 10000 uM GlcN6P: 9.79e-05 ± 2.5e-05 s⁻¹

## C8G U47G U54A G63U
[1]
  self-cleavage kobs at 160 uM GlcN6P: < 1e-05 s⁻¹
[2]
  self-cleavage kobs at 640 uM GlcN6P: < 1e-05 s⁻¹
[3]
  self-cleavage kobs at 2500 uM GlcN6P: < 1e-05 s⁻¹

## C34A A36G A39U A48C
[1]
  self-cleavage kobs at 160 uM GlcN6P: < 1e-05 s⁻¹
[3]
  self-cleavage kobs at 2500 uM GlcN6P: < 1e-05 s⁻¹

## G29C G35A G59U A64G
[1]
  self-cleavage kobs at 160 uM GlcN6P: < 1e-05 s⁻¹

## U30C U54G C68A
[1]
  self-cleavage kobs at 160 uM GlcN6P: 0.000132 ± 4.9e-05 s⁻¹

## A48U G59C
[1]
  self-cleavage kobs at 160 uM GlcN6P: < 1e-05 s⁻¹
[2]
  self-cleavage kobs at 640 uM GlcN6P: < 1e-05 s⁻¹
[3]
  self-cleavage kobs at 2500 uM GlcN6P: < 1e-05 s⁻¹
[4]
  self-cleavage kobs at 10000 uM GlcN6P: < 1e-05 s⁻¹

## G43C C61U
[1]
  self-cleavage kobs at 160 uM GlcN6P: < 1e-05 s⁻¹
[2]
  self-cleavage kobs at 640 uM GlcN6P: < 1e-05 s⁻¹
[3]
  self-cleavage kobs at 2500 uM GlcN6P: < 1e-05 s⁻¹
[4]
  self-cleavage kobs at 10000 uM GlcN6P: < 1e-05 s⁻¹

## A12G A14C A48U
[1]
  self-cleavage kobs at 160 uM GlcN6P: < 1e-05 s⁻¹
[2]
  self-cleavage kobs at 640 uM GlcN6P: < 1e-05 s⁻¹
[3]
  self-cleavage kobs at 2500 uM GlcN6P: < 1e-05 s⁻¹

## C16U A64G U65A C70U
[1]
  self-cleavage kobs at 160 uM GlcN6P: 8.56e-05 ± 2.7e-05 s⁻¹
[2]
  self-cleavage kobs at 640 uM GlcN6P: 0.00104 ± 0.00025 s⁻¹
[3]
  self-cleavage kobs at 2500 uM GlcN6P: 0.000964 ± 0.00024 s⁻¹

## C34U G63A G66U
[1]
  self-cleavage kobs at 160 uM GlcN6P: < 1e-05 s⁻¹
[2]
  self-cleavage kobs at 640 uM GlcN6P: < 1e-05 s⁻¹

## G40U G43C C68G
[1]
  self-cleavage kobs at 160 uM GlcN6P: 0.000486 ± 0.00015 s⁻¹
[2]
  self-cleavage kobs at 640 uM GlcN6P: 0.000552 ± 0.00012 s⁻¹
[3]
  self-cleavage kobs at 2500 uM GlcN6P: 0.00105 ± 0.00026 s⁻¹

## G63A G66C
[1]
  self-cleavage kobs at 160 uM GlcN6P: < 1e-05 s⁻¹
[2]
  self-cleavage kobs at 640 uM GlcN6P: < 1e-05 s⁻¹
[3]
  self-cleavage kobs at 2500 uM GlcN6P: < 1e-05 s⁻¹
[4]
  self-cleavage kobs at 10000 uM GlcN6P: < 1e-05 s⁻¹

## U46G U49A
[1]
  self-cleavage kobs at 160 uM GlcN6P: < 1e-05 s⁻¹
[2]
  self-cleavage kobs at 640 uM GlcN6P: < 1e-05 s⁻¹
[3]
  self-cleavage kobs at 2500 uM GlcN6P: < 1e-05 s⁻¹
[4]
  self-cleavage kobs at 10000 uM GlcN6P: < 1e-05 s⁻¹

## G32U G35A A42C
[1]
  self-cleavage kobs at 160 uM GlcN6P: < 1e-05 s⁻¹
[2]
  self-cleavage kobs at 640 uM GlcN6P: < 1e-05 s⁻¹
[3]
  self-cleavage kobs at 2500 uM GlcN6P: < 1e-05 s⁻¹

## G38C G62U
[1]
  self-cleavage kobs at 160 uM GlcN6P: < 1e-05 s⁻¹
[3]
  self-cleavage kobs at 2500 uM GlcN6P: < 1e-05 s⁻¹
[4]
  self-cleavage kobs at 10000 uM GlcN6P: < 1e-05 s⁻¹

## C10A A14G
[1]
  self-cleavage kobs at 160 uM GlcN6P: < 1e-05 s⁻¹
[4]
  self-cleavage kobs at 10000 uM GlcN6P: 3.58e-05 ± 1.1e-05 s⁻¹

## A42C G44A U49C
[1]
  self-cleavage kobs at 160 uM GlcN6P: < 1e-05 s⁻¹
[2]
  self-cleavage kobs at 640 uM GlcN6P: < 1e-05 s⁻¹
[3]
  self-cleavage kobs at 2500 uM GlcN6P: < 1e-05 s⁻¹

## G43A G59A A64U
[1]
  self-cleavage kobs at 160 uM GlcN6P: < 1e-05 s⁻¹
[4]
  self-cleavage kobs at 10000 uM GlcN6P: < 1e-05 s⁻¹

## G7U A15C A36U U47C
[1]
  self-cleavage kobs at 160 uM GlcN6P: < 1e-05 s⁻¹
[2]
  self-cleavage kobs at 640 uM GlcN6P: < 1e-05 s⁻¹
[3]
  self-cleavage kobs at 2500 uM GlcN6P: < 1e-05 s⁻¹

## C34U U56G
[1]
  self-cleavage kobs at 160 uM GlcN6P: < 1e-05 s⁻¹
[3]
  self-cleavage kobs at 2500 uM GlcN6P: < 1e-05 s⁻¹

## G35C U46C C50A
[1]
  self-cleavage kobs at 160 uM GlcN6P: < 1e-05 s⁻¹
[4]
  self-cleavage kobs at 10000 uM GlcN6P: < 1e-05 s⁻¹

## A36U U65C
[1]
  self-cleavage kobs at 160 uM GlcN6P: < 1e-05 s⁻¹

## C11U C34U G66C
[1]
  self-cleavage kobs at 160 uM GlcN6P: < 1e-05 s⁻¹
[3]
  self-cleavage kobs at 2500 uM GlcN6P: < 1e-05 s⁻¹

## G41C A52C G60A G63A G66A C68U
[1]
  self-cleavage kobs at 160 uM GlcN6P: < 1e-05 s⁻¹
[2]
  self-cleavage kobs at 640 uM GlcN6P: < 1e-05 s⁻¹

## G51A U57C
[1]
  self-cleavage kobs at 160 uM GlcN6P: < 1e-05 s⁻¹
[2]
  self-cleavage kobs at 640 uM GlcN6P: < 1e-05 s⁻¹
[3]
  self-cleavage kobs at 2500 uM GlcN6P: < 1e-05 s⁻¹
[4]
  self-cleavage kobs at 10000 uM GlcN6P: < 1e-05 s⁻¹

## G32C C34A C61U C67U
[1]
  self-cleavage kobs at 160 uM GlcN6P: < 1e-05 s⁻¹
